Results: patent US20090180952A1

Experiments:
[1] = biological target: recombinant soluble urokinase plasminogen activator receptor (suPAR, aa 1-279) (UniProt Q03405); experiment: direct binding assay (format and antigen form not stated)
[2] = biological target: uPAR on the surface of HeLa cells, Q03405; experiment: 125I-ATN-658 saturation binding to HeLa cells
uPAR on the surface of HeLa cells, Q03405, sequence (Q03405 23-305 limits assumed): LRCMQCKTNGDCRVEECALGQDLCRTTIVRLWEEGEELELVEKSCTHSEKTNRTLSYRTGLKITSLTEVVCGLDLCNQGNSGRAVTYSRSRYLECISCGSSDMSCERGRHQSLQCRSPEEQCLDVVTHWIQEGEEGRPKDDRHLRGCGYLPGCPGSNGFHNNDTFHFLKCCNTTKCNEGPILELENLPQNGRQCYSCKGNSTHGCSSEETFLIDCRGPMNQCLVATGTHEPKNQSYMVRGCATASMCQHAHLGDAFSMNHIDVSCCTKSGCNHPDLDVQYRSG

B1: mAb ATN-615 (antibody, IgG1, V domains shown)
VH: VKLQQSGPEVVKPGASVKISCKASGYSFTNFYIHWVKQRPGQGLEWIGWIFHGSDNTEYNEKFKDKATLTADTSSSTAYMQLSSLTSEDSAVYFCARWGPHWYFDVWGQGTTVTVSS
VL: DIVLTQSPDITAASLGQKVTITCSASSSVSYMHWYQQKSGTSPKPWIFEISKLASGVPARFSGSGSGTSYSLTISSMEAEDAAIYYCQQWNYPFTFGGGTKLEIKR
Kd [1]: 2 nM

B2: mAb ATN-658 (antibody, IgG1, V domains shown)
VL: not shown
VH: VQLQESGPELVKTGASVKISCKASGYSFTSYYMHWVKQSHGKSLEWIGEINPYNGGASYNQKIKGRATFTVDTSSRTAYMQFNSLTSEDSAVYYCARSIYGHSVLDYWGQGTTVTVS
modifications: not checked
Kd [2]: 1.5 nM
